Assay results taken from patent publication US20150218261A1 (AbbVie / Abbott, published 2015).

How the values were obtained:
[1] = target: T1, human platelet factor 4 (PF-4) in HPF4-spiked human plasma (human); assay: sandwich ELISA (R2), HPF4-spiked human plasma; AUC of reference anti-HPF4 antibody (ab49735) against AUC of this antibody
T1 construct: Human EDTA plasma pool (4 donors) spiked with 10 ng/ml human PF4 (Molecular Innovation cat. no. HPF4); also called human PF4; CXCL4

[2] = target: T1, human platelet factor 4 (PF-4) in …; assay: aligned sandwich ELISA (R4), HPF4-spiked human plasma; AUC of reference anti-HPF4 antibody (ab49735) against AUC of this antibody
[3] = target: T2, platelet factor 4 (PF-4) in Cynomolgus monkey plasma (Cynomolgus monkey (Macaca fascicularis), UniProt A0A7N9D5L6 32-101); assay: sandwich ELISA (E1), cynomolgus plasma; AUC of reference anti-HPF4 antibody (ab49735) against AUC of this antibody
T2 construct: Endogenous protein of the plasma; detected with rabbit polyclonal anti-HPF4 (Abcam ab9561); also called CXCL4
T2 sequence: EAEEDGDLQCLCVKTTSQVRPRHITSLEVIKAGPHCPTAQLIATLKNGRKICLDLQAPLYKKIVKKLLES

[4] = target: T1, human platelet factor 4 (PF-4) in …; assay: sandwich ELISA (E2), HPF4-spiked human plasma; AUC of reference anti-HPF4 antibody (ab49735) against AUC of this antibody
[5] = target: T2, platelet factor 4 (PF-4) in Cynomolgus …; assay: sandwich-ELISA: antibody coated on the plate, dilution series of cynomolgus plasma, bound PF-4 detected (OD450nm)
[6] = target: T2, platelet factor 4 (PF-4) in Cynomolgus …; assay: aligned sandwich ELISA (E3), cynomolgus plasma; AUC of reference anti-HPF4 antibody (ab49735) against AUC of this antibody
Method: (§1) Then 10 μl 10 mg/ml trypsin inhibitor in H₂O were added. After incubation for 10 min at room temperature the sample was filtrated through a 0.22 μm filter (Millipore cat. no. SLGS0250S).
(§2) Procedure used: [0437] 1. 100 μl of the respective aligning antibody solution (anti-human IgG for experiment E3; anti-murine IgG for reference experiment R3) per well were applied and incubated overnight at 4° C. [0438] 2. The antibody solution was discarded and the wells were washed three times with 250 μl PB ST-buffer. [0439] 3. 265 μl blocking solution per well were added and incubated 2 h at room temperature. [0440] 4. The blocking solution was discarded and the wells were washed three times with 250 μl PBST buffer. [0441] 5. After preparation of the dilution series of each binding antibody, 100 μl per well of these antibody dilutions were applied to the plate. The plate was incubated 2 h at room temperature. [0442] 6. […] Plate colour was monitored during development (5-15 min at ambient temperature) and the reaction was terminated by adding 50 μl/well of stop solution when an appropriate colour had developed. […] The absorbance was read at 450 nm.
(§3) Data analysis was performed as described for sandwich-ELISA with cynomolgus plasma in Example 3.1, except that not plasma dilution factors but the amounts of antibody (expressed in ng/ml) were used as X-values and thus concentration effect curves were calculated.

[7] = target: T1, human platelet factor 4 (PF-4) in …; assay: aligned sandwich ELISA (E4), HPF4-spiked human plasma; AUC of reference anti-HPF4 antibody (ab49735) against AUC of this antibody
[8] = target: T3, Aβ(20-42) globulomer (human); assay: SPR (BIAcore); antibody captured on goat anti-human IgG Fc, soluble globulomer injected; average
T3 construct: Range counted on the Aβ peptide; also called amyloid-beta (20-42) globulomer
T3 peptide: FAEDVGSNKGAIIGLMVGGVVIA
Method: (§4) Interaction of the purified humanized antibodies 4D10hum#1 and 4D10hum#2 to Aβ(20-42) globulomer was evaluated by surface plasmon resonance (SPR) analysis using a BIAcore device. Goat anti-human IgG Fc (10,000 RU) was directly immobilized on a CMS sensor chip by an amine coupling procedure according to the manufacturer's instructions (BIAcore). The respective 4D10hum antibody was captured on the goat anti-human IgG Fc coated surface of the chip by injecting 5.0 μl of a 1 μg/ml 4D10hum antibody solution at a flow rate of 10-15 μl/min. Interaction of soluble Aβ(20-42) globulomer with the 4D10hum antibody on the sensor chip was examined by injecting globulomer solutions (concentration range: 20-0.3125 nM) at a flow rate of 50 μl/min. The association rate was monitored for 5.0 min and the dissociation rate was monitored for 10 min. From the resulting sensorgrams the association rate constant (kₒₙ), dissociation rate constant (koff) and equilibrium dissociation constant (KD) were determined using to the manufacturer's software and instructions. The kinetic and equilibrium constants determined for three different preparations of 4D10hum#1 and two different preparations of 4D10hum#2 are summarized in table 7. […] The heavy chains of antibodies #4 and #5 are as in 4D10hum#1 or #2, and the light chains are chimeras of m4D10 VL (SEQ ID NO:24) and the human Ig kappa constant region (SEQ ID NO:27). The light chains of antibody #3 are as in 4D10hum#1 and #2, and the heavy chains are chimeras of m4D10 VH (SEQ ID NO23) and the human Ig gamma-1 constant region (SEQ ID NO:25).

[9] = target: T3, Aβ(20-42) globulomer; assay: SPR (BIAcore); antibody captured on goat anti-human IgG Fc, soluble globulomer injected; experiment 1
Method: as §4

[10] = target: T3, Aβ(20-42) globulomer; assay: SPR (BIAcore); antibody captured on goat anti-human IgG Fc, soluble globulomer injected; experiment 2
Method: as §4

[11] = target: T2, platelet factor 4 (PF-4) in Cynomolgus …; assay: aligned sandwich ELISA (E3), cynomolgus plasma; AUC was 0, ratio could not be calculated
Method: as §1, §2, §3

[12] = target: T3, Aβ(20-42) globulomer; assay: SPR (BIAcore); antibody captured on goat anti-human IgG Fc, soluble globulomer injected; lot #1759119, average
Method: as §4

[13] = target: T3, Aβ(20-42) globulomer; assay: SPR (BIAcore); antibody captured on goat anti-human IgG Fc, soluble globulomer injected; lot #1773659, average
Method: as §4

[14] = target: T3, Aβ(20-42) globulomer; assay: SPR (BIAcore); antibody captured on goat anti-human IgG Fc, soluble globulomer injected; lot #1759119, experiment 1
Method: as §4

[15] = target: T3, Aβ(20-42) globulomer; assay: SPR (BIAcore); antibody captured on goat anti-human IgG Fc, soluble globulomer injected; lot #1759119, experiment 2
Method: as §4

[16] = target: T3, Aβ(20-42) globulomer; assay: SPR (BIAcore); antibody captured on goat anti-human IgG Fc, soluble globulomer injected; lot #1773659, experiment 1
Method: as §4

[17] = target: T3, Aβ(20-42) globulomer; assay: SPR (BIAcore); antibody captured on goat anti-human IgG Fc, soluble globulomer injected; lot #1773659, experiment 2
Method: as §4

Row | Binder | Ratio HPF4/aAβ antibody [3] | Ratio HPF4/aAβ antibody [4] | binding result [5] | Ratio HPF4/aAβ antibody [7] | Kd [8] [nM] | koff [8] [s⁻¹] | kon [8] [M⁻¹ s⁻¹] | Kd [9] [nM] | koff [9] [s⁻¹] | kon [9] [M⁻¹ s⁻¹] | Kd [10] [nM] | koff [10] [s⁻¹] | kon [10] [M⁻¹ s⁻¹] | also measured
1 | anti-Aβ monoclonal antibody clone m4D10 (antibody, V domains shown, Murine monoclonal antibody; also called mAb m4D10; murine 4D10) VH: QVQLKQSGPSLIQPSQSLSITCTVSGFSLTSYGVHWVRQSPGKGLEWLGVIWRGGRIDYNAAFMSRLSITKDNSKSQVFFKMNSLQADDTAIYYCARNSDVWGTGTTVTVSS VL: not shown | – | – | – | – | – | – | – | – | – | – | – | – | – | Ratio HPF4/aAβ antibody [1]: 21; Ratio HPF4/aAβ antibody [2]: 27
2 | humanized monoclonal anti-Aβ antibody 4D10hum#1 (antibody, human IgG1, kappa, V domains shown, also called mAb 4D10hum#1; mAb 4D10 hum#1) VH: EVQLVESGGGLVQPGGSLRLSCAVSGFTLSSYGVHWVRQAPGKGLEWLGVIWRGGRIDYNAAFMSRLTISKDNSKSTVYLQMNSLRAEDTAVYYCARNSDVWGQGTTVTVSS VL: DVVMTQTPLSLPVTPGQPASISCKSSQSLLDIDGKTYLNWLLQKPGQSPQRLIYLVSKLDSGVPDRFSGSGSGTDFTLKISRVEAEDVGVYYCWQGTHFPYTFGQGTKLEIKR | 64 | 30 | no binding (tested: plasma dilution 1:3.16) | 23 | – | – | – | – | – | – | – | – | – | Ratio HPF4/aAβ antibody [6]: 158
3 | 4D10#3 (chimeric heavy chain; light chain as 4D10hum#1 and #2) (antibody, human IgG1, kappa, V domains shown, Heavy chain is a chimera of m4D10 VH and the human Ig gamma-1 constant region; light chain is the humanized one; also called antibody #3) VH: QVQLKQSGPSLIQPSQSLSITCTVSGFSLTSYGVHWVRQSPGKGLEWLGVIWRGGRIDYNAAFMSRLSITKDNSKSQVFFKMNSLQADDTAIYYCARNSDVWGTGTTVTVSS VL: DVVMTQTPLSLPVTPGQPASISCKSSQSLLDIDGKTYLNWLLQKPGQSPQRLIYLVSKLDSGVPDRFSGSGSGTDFTLKISRVEAEDVGVYYCWQGTHFPYTFGQGTKLEIKR | – | – | – | – | 0.597 | 0.000333 | 563000 | 0.525 | 0.000317 | 603000 | 0.669 | 0.000349 | 522000 | –
4 | humanized monoclonal anti-Aβ antibody 4D10hum#2 (antibody, human IgG1, kappa, V domains shown, also called mAb 4D10hum#2; mAb 4D10 hum#2) VH: EVQLQESGPGLVKPSETLSLTCTVSGFSLSSYGVHWVRQPPGKGLEWLGVIWRGGRIDYNAAFMSRLTISKDTSKSQVSLKLSSVTAADTAVYYCARNSDVWGQGTTVTVSS VL: DVVMTQTPLSLPVTPGQPASISCKSSQSLLDIDGKTYLNWLLQKPGQSPQRLIYLVSKLDSGVPDRFSGSGSGTDFTLKISRVEAEDVGVYYCWQGTHFPYTFGQGTKLEIKR | 36 | 17 | no binding (tested: plasma dilution 1:3.16) | 75 | – | – | – | – | – | – | – | – | – | Ratio HPF4/aAβ antibody [11]: > 158; Kd [12]: 0.532 nM; koff [12]: 0.000301 s⁻¹; kon [12]: 570000 M⁻¹ s⁻¹; Kd [13]: 0.482 nM; koff [13]: 0.000283 s⁻¹; kon [13]: 597000 M⁻¹ s⁻¹; Kd [14]: 0.454 nM; koff [14]: 0.00027 s⁻¹; kon [14]: 593000 M⁻¹ s⁻¹; Kd [15]: 0.609 nM; koff [15]: 0.000332 s⁻¹; kon [15]: 546000 M⁻¹ s⁻¹; Kd [16]: 0.529 nM; koff [16]: 0.000268 s⁻¹; kon [16]: 507000 M⁻¹ s⁻¹; Kd [17]: 0.435 nM; koff [17]: 0.000298 s⁻¹; kon [17]: 686000 M⁻¹ s⁻¹
5 | 4D10#4 (heavy chain as 4D10hum#1; chimeric light chain) (antibody, human IgG1, kappa, V domains shown, Light chain is a chimera of m4D10 VL and the human Ig kappa constant region; also called antibody #4) VH: EVQLVESGGGLVQPGGSLRLSCAVSGFTLSSYGVHWVRQAPGKGLEWLGVIWRGGRIDYNAAFMSRLTISKDNSKSTVYLQMNSLRAEDTAVYYCARNSDVWGQGTTVTVSS VL: not shown | – | – | – | – | 0.646 | 0.000313 | 484000 | 0.635 | 0.000294 | 462000 | 0.657 | 0.000332 | 506000 | –
6 | 4D10#5 (heavy chain as 4D10hum#2; chimeric light chain) (antibody, human IgG1, kappa, V domains shown, Light chain is a chimera of m4D10 VL and the human Ig kappa constant region; also called antibody #5) VH: EVQLQESGPGLVKPSETLSLTCTVSGFSLSSYGVHWVRQPPGKGLEWLGVIWRGGRIDYNAAFMSRLTISKDTSKSQVSLKLSSVTAADTAVYYCARNSDVWGQGTTVTVSS VL: not shown | – | – | – | – | 0.575 | 0.000277 | 483000 | 0.53 | 0.000262 | 494000 | 0.619 | 0.000292 | 472000 | –
